Paper PMC9569509, “Collagen Type XI Inhibits Lung Cancer-Associated Fibroblast Functions and Restrains the Integrin Binding Site Availability on Collagen Type I Matrix” (International Journal of Molecular Sciences, 2022)

Target: bovine collagen type XI (bovine, UniProt Q28083 279-911; Q32S24 28-1736; P02459 182-1487, Triple helix of alpha1(XI), alpha2(XI) and alpha3(XI), the last being the COL2A1 product; hydroxyproline and glycosylated hydroxylysine. Purchased tissue collagen (Chondrex); limits not given, and t)
Sequence (Q28083 279-911, chain 1 of 3): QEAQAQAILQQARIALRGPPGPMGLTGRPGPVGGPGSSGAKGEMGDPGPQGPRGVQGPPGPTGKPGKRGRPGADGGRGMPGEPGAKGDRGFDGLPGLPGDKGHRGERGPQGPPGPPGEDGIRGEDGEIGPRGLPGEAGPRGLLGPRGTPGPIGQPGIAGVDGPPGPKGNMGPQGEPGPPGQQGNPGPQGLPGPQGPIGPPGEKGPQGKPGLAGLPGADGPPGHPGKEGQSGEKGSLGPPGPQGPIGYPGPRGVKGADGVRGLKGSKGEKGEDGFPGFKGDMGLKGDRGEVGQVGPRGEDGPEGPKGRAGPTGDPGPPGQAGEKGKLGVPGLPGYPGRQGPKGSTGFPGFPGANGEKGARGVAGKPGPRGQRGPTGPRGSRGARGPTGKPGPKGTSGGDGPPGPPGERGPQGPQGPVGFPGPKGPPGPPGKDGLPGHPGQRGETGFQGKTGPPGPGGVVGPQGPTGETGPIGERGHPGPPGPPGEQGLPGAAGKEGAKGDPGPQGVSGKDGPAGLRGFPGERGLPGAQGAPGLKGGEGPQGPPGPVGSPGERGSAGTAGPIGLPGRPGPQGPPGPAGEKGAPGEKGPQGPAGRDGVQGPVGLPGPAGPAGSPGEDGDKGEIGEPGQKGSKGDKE
Sequence (Q32S24 28-1736, chain 2 of 3): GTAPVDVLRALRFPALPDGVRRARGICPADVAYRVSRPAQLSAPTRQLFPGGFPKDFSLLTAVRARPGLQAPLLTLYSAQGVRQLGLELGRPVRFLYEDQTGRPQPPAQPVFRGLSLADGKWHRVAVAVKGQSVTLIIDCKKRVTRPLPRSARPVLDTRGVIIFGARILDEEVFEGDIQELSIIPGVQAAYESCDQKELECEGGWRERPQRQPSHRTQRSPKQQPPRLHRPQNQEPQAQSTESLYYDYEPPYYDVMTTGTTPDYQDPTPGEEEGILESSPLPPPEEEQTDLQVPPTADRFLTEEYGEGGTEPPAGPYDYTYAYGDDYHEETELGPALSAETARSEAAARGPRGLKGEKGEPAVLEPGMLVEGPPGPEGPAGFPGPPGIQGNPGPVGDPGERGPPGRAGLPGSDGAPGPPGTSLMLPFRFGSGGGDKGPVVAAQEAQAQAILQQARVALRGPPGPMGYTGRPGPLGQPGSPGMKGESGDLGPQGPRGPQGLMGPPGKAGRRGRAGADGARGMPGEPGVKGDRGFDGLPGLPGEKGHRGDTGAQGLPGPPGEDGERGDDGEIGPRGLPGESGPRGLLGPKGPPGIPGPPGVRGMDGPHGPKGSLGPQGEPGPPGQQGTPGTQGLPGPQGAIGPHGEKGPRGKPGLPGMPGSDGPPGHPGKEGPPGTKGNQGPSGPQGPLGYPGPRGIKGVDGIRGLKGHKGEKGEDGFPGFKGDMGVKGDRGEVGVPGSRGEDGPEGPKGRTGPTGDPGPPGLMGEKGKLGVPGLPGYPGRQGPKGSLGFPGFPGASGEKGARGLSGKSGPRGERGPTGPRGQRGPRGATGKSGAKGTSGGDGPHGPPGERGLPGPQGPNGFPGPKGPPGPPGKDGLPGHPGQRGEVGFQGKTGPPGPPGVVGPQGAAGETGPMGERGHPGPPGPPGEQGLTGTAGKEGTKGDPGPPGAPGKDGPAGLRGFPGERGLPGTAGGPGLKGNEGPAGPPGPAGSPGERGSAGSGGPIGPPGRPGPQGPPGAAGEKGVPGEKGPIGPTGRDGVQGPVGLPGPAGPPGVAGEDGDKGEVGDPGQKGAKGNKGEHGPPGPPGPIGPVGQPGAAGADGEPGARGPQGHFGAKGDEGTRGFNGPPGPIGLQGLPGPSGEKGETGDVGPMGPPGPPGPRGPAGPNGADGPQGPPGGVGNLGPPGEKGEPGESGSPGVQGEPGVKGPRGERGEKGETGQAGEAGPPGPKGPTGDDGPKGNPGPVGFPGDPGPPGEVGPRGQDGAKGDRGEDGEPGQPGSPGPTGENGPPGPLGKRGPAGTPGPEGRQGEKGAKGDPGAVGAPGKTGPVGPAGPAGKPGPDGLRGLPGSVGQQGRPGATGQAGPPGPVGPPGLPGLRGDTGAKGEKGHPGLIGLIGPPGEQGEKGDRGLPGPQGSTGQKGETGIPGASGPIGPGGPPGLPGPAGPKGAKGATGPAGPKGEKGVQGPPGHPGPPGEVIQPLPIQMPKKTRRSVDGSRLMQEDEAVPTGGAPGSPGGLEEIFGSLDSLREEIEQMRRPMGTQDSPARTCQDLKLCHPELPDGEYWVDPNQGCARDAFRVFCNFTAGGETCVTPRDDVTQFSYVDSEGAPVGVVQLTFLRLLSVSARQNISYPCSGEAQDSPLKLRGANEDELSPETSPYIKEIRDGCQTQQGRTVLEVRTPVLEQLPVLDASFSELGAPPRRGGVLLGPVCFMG
Sequence (P02459 182-1487, chain 3 of 3): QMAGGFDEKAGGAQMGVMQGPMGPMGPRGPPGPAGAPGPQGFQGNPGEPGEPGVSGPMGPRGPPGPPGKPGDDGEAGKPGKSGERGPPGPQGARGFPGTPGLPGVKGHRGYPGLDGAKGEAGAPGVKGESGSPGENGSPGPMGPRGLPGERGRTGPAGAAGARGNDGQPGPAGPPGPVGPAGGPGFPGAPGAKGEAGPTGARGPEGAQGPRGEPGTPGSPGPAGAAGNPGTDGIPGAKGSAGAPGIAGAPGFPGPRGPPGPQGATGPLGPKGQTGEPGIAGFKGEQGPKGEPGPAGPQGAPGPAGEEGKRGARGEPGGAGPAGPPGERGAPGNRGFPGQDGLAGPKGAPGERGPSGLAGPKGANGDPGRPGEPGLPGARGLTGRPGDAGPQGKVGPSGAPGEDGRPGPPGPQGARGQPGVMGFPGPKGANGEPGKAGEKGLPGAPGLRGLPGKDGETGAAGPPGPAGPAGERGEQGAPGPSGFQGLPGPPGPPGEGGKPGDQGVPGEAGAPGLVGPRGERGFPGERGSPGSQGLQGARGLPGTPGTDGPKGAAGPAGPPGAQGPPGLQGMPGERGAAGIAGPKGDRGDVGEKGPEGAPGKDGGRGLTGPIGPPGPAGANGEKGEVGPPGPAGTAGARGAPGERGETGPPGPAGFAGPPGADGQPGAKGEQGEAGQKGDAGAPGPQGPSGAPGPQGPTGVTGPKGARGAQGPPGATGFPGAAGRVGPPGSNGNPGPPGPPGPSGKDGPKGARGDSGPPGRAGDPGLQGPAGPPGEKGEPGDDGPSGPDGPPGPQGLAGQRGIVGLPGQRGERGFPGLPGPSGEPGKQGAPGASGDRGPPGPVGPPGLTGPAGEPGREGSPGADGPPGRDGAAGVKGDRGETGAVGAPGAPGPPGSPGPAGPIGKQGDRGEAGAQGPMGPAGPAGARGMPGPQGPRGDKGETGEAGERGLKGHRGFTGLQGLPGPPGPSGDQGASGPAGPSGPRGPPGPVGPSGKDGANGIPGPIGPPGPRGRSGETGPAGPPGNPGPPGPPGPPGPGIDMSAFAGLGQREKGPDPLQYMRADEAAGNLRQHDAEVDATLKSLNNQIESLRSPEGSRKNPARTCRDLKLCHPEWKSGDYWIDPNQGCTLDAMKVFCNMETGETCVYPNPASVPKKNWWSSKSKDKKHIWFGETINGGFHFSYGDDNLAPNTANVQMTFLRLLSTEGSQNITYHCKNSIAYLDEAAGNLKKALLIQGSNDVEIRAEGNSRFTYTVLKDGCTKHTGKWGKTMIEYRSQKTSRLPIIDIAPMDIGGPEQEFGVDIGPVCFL
Experiment: ELISA; solid phase assay: collagens (50 µg/mL) or fibronectin (10 µg/mL) immobilised on a 96-well plate; DDR2-Fc in 0.05 mg/mL κ-casein in PBS-T, 3 h at room temperature; detected by goat anti-human IgG (Fc specific)-HRP; Kd by Scatchard plot
Conditions: both partners purified

Kd: 2 to 5 nM
B1: Recombinant human DDR2-Fc chimera protein (Fc fusion, UniProt Q16832 22-399, looked up)
chain: KAQVNPAICRYPLGMSGGQIPDEDITASSQWSESTAAKYGRLDSEEGDGAWCPEIPVEPDDLKEFLQIDLHTLHFITLVGTQGRHAGGHGIEFAPMYKINYSRDGTRWISWRNRHGKQVLDGNSNPYDIFLKDLEPPIVARFVRFIPVTDHSMNVCMRVELYGCVWLDGLVSYNAPAGQQFVLPGGSIIYLNDSVYDGAVGYSMTEGLGQLTDGVSGLDDFTQTHEYHVWPGYDYVGWRNESATNGYIEIMFEFDRIRNFTTMKVHCNNMFAKGVKIFKEVQCYFRSEASEWEPNAISFPLVLDDVNPSARFVTVPLHHRMASAIKCQYHFADTWMMFSEITFQSDAAMYNNSEALPTSPMAPTTYDPMLKVDDSNTR
notes: discoidin domain receptor 2, human; No catalogue number printed; Probably the extracellular domain of DDR2 joined to a human IgG Fc; Detected by goat anti-human IgG (Fc specific)-HRP; source: bought: Sino Biological
